Results on 7 molecules are retold here after patent publication US6319685A (Unigene Laboratories, Inc., priority 1987, dated 2001).

Like-named read-outs stand apart in the source and are kept apart here. No end group written: not given here. Bounds are passed on as bounds.

What is called Km is the substrate concentration at which the rate is half of its maximum.

The nature of data set [1]: biological activity of amidated recombinant hormones versus synthetic hormone.
Data set [2] has as its target T1, alpha-amidating enzyme (Rattus norvegicus, UniProt P14925).
T1 sequence (P14925 36-976): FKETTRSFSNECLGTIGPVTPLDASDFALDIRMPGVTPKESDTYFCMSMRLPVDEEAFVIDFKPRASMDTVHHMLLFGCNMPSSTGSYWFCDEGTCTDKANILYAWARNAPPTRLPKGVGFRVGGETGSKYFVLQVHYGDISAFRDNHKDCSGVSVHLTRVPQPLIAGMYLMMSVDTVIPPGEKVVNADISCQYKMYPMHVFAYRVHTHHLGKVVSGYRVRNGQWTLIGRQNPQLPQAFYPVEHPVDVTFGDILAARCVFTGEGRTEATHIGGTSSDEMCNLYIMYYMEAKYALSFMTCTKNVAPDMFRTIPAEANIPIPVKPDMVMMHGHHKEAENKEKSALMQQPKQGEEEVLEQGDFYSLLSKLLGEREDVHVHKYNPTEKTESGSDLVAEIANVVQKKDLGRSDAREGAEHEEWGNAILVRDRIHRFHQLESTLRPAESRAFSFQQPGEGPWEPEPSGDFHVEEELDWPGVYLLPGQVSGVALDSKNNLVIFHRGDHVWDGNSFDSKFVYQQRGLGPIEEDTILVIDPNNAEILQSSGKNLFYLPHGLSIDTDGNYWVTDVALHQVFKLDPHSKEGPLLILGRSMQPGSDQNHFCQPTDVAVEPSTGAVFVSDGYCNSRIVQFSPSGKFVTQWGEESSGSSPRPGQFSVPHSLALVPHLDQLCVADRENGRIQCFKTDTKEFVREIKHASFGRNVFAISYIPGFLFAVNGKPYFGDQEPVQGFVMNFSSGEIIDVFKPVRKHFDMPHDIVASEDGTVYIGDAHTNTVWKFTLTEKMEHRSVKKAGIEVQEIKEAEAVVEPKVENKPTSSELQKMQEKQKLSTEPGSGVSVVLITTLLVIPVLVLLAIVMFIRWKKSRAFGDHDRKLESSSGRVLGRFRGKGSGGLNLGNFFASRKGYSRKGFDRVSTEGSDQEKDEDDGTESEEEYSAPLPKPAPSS
The data set can be described thus: comparison of assay systems / kinetic analysis of amidation of dansyl-Tyr-Val-Gly, D-Tyr-Val-Gly and 125I-D-Tyr-Val-Gly. Format: biochemical. On the procedure:
I. Monodansyl L-Tyr-Val-Gly
The concentration of enzyme used in all experiments was left constant except where noted.
(§1) The reaction mixture for the conversion of the monodansyl substrate contained:
5 μl of 100 ug/mL bovine pancreatic catalase
5 μl containing 2 nmoles of substrate
The samples were prepared in duplicate and incubated at 37° C. for 10, 20 and 30 minutes time periods. The enzymatic reaction was halted by the addition of 10 ul 500 mM EDTA. Substrate and product were separated by RP HPLC using an Hewlett Packard-1090 liquid chromatography system, and quantitation was achieved using a HP-3392 integrator.
D-Tyr-Val-Gly and D-Tyr-Val-NH2 were iodinated using iodobeads from Pierce Chemical Company. The radiolabeied substrate and product were used to calibrate a sulfyl-propyl cation-exchange column. ^125 I D-Tyr-Val-Gly was added to 650 uM D-Tyr-Val-Gly and used as the substrate. The reaction mixture for the conversion of monodansyl substrate contained:
Samples were incubated for 10, 20, 30 minutes at 37° C. The reaction was stopped by addition of 500 mM EDTA. […] The conversion of radiolabeled substrate to product was linear with respect to time.
The reaction conditions used for the amidation of D-Tyr-Val-Gly are identical to those described for the dansyl and iodinated substrates. Substrate concentration in the reaction mixture was 650 uM. Separation of substrate and product is achieved by gradient elution on RP-HPLC using a HP-1090 liquid chromatography system. The column effluents were monitored at 280 nm. The level of sensitivity for this assay is much lower than that for either dansyl or iodinated substrates.
Furthermore, a somewhat more rigorous kinetic analysis has also been employed to compare the dansyl-Tyr-Val-Gly (Applicants') assay to the D-Tyr-Val-Gly (prior art) assay.

Data set [3] has as its target T1, alpha-amidating enzyme. The data set can be described thus: kinetic studies of alpha-amidating enzyme with monodansyl L-Tyr-Val-Gly. Format: biochemical. The note with it: pH 7.0, 37° C. The text has this: These assays incorporate the use of synthetic tripeptide substrates. Amidation of these substrates is conveniently monitored by separation and quantification of the product ([…] and substrate tripeptide) using HPLC. The most sensitive of the assays developed utilizes monodansyl L-Tyr-Val-Gly as substrate. This compound can be detected at extremely low levels because the dansyl group is fluorescent.
In particular, the kinetic parameters Km and Vmax have been determined by examination of the effect of variation of substrate concentration upon enzymatic activity. […] The smaller the Km the greater the affinity. Vmax is the maximum velocity at which the enzyme will convert the substrate to product and is observed at saturating concentrations of substrate (i.e., the substrate is present in large excess over the enzyme).
In a typical amidation enzyme assay, the reation system (50 ul) would comprise enzyme (approximately 7 μg), dansyl L-Tyr-Val-Gly (up to 40 μM), L-ascorbic acid (3 mM), catalase (0 to 100 μg ml^-1), and copper sulfate (0 to 2 uM) in 60 mM TES buffer at pH 7.0. The reaction is initiated at 37° C. by the addition of enzyme and terminated after a defined period of time by the addition of 0.1 M EDTA (final concentration), which binds up copper making it unavailable for the enzyme.

Data set [4] is described as follows: specific alpha-amidating activity, conversion of Dansyl-D-Tyr-Val-Gly to Dansyl-D-Tyr-Val-CONH2. Format: biochemical. The note with it: homogeneous peak III enzyme, rat MTC tumor. On the procedure: These and other objects will become apparent from a thorough reading of the present disclosure. […] All specific activity units set forth herein are based upon the conversion of Dansyl-D-Try-Val-Gly-COOH to Dansyl-D-Tyr-Val-CONH2. One mU is defined as the amount of activity needed to convert one nanomole (nmole) of Dansyl-D-Tyr-Val-Gly-COOH to one nmole of Dansyl-D-Tyr-Val-CONH2 per minute at 37° C. and pH 7.0 in the presence of ascorbate ions at a concentration of 3 mM (based on total reaction mixture including enzyme, substrate, co-factors, etc.), molecular oxygen in a molar excess over substrate and a concentration of cupric ions effective to maximize activity (usually about 2 μM depending on the state of purity of the enzyme).
Each purification step can be monitored for both protein content and the level of alpha-amidation activity. This information is used to calculate the specific activity of the enzyme which serves as an indicator of the relative purity of the enzyme.
Sephacryl S-300 (Pharmacia) was equilibrated in 50 mM Tris HCl pH 7.0 and poured into a K 50/100 column (Pharmacia) according to the manufacturer's instructions. The bed volume of the column was approximately 1.3 liters. The Sample was loaded onto the column in a volume representing approximately 3 percent of the bed volume of the column. Proteins were eluted from the column in 50 mM Tris HCl pH 7.0 at a flow rate of approximately 2 ml per minute.
as §1
The samples were prepared in duplicate and incubated at 37° C. for 10, 20 and 30 minutes time periods. The enzymatic reaction was halted by the addition of 10 ul 500 mM EDTA.

A short description of data set [5]: pH optimum of alpha-amidating enzyme. Format: biochemical. The note with it: rat MTC tumor enzyme, N dansyl Tyr-Val-Gly substrate. On the procedure:
2. The optimum pH for the activity of the enzyme was determined to be pH 5.0-5.5 using N dansyl Tyr-Val-Gly as the substrate (FIG. XVI). However, due to the enhanced stability of the enzyme at neutral pH, it may be beneficial to carry out the amidation reaction at such pH.

Data set [6] can be described thus: iso-electric point of alpha-amidating enzyme. Format: physicochemical.
Data set [7] deals with T1, alpha-amidating enzyme. The data set can be described thus: co-factor requirement of alpha-amidating enzyme for maximal activity. Format: biochemical.
The conditions of data set [8]: cited from earlier work.

Turning to “recombinant human calcitonin: purified alpha-amidated recombinant human calcitonin (CGNLSTCMLGTYTQDFNKFHTFPQTAIGVGAP-NH2; ends and bridges not checked; UniProt P01258 85-116, looked up)”, the “biological activity (and characterization) compared with synthetic hormone” value in data set [1] is on record as “indistinguishable from synthetic human calcitonin”.

For the molecule “monodansyl L-Tyr-Val-Gly [Dansyl-Tyr-Val-Gly]”, the Km on alpha-amidating enzyme [2] was 1700 nM; on alpha-amidating enzyme [3] (regardless of the state of purification of the enzyme), 1000 to 2000 nM. Besides, the Vmax at alpha-amidating enzyme [2] stood at 21 pmol product/min/μl.

Turning to “recombinant hGHRF: recombinant, alpha-amidated human growth hormone releasing factor (YADAIFTNSYRKVLGQLSARKLLQDIMSRQQGESNQERGARARL-NH2; UniProt P01286 32-75, looked up)”, in data set [1], the “biological activity (and characterization) compared with synthetic hormone” value is recorded as “indistinguishable from synthetic hGHRF”.

B1: peak III enzyme (MTC tumor): MTC tumor alpha-amidating enzyme peak eluting at 220 mM NaCl from Mono Q pH 6.0, purified to homogeneity (protein, UniProt P14925 36-976, looked up)
Peptidylglycine …: T1 sequence (P14925 36-976)
modifications: Mono Q peak III form
Turning to B1, the specific activity in data set [4] is 2,100 mU/mg protein. For the same molecule, in data set [5], the pH optimum was 5.0-5.5. For the same molecule, in data set [6], the “iso-electric point (pI)” value was determined as 4.8. In the data set with alpha-amidating enzyme [7], the “Cu++ required for maximal activity” value is ≤ 0.1 µM.

B2: peak II enzyme (MTC tumor): MTC tumor alpha-amidating enzyme peak eluting at 200 mM NaCl from Mono Q pH 6.0 (protein, UniProt P14925 36-976, looked up)
Peptidylglycine …: T1 sequence (P14925 36-976)
modifications: Mono Q peak II form
In the case of B2, the pH optimum in data set [5] is 5.0-5.5. Moreover, the “iso-electric point (pI)” value in data set [6] is on record as “approximately 5.8”.

B3: pure tumor enzyme: pure alpha-amidating enzyme from tumor (protein, UniProt P14925 36-976, looked up)
Peptidylglycine …: T1 sequence (P14925 36-976)
Take B3: in the data set with alpha-amidating enzyme [3] (dansyl L-Tyr-Val-Gly, pure tumor enzyme), the Vmax result is on record as “about 5000 nmol product formed per mg protein”.

B4: alpha-amidating enzyme from rat pituitaries: alpha-amidating enzyme partially purified from rat pituitaries (protein, UniProt P14925 36-976, looked up)
Peptidylglycine …: T1 sequence (P14925 36-976)
modifications: partially purified
For B4, the “enzyme activity outside pH 6.5-7.5” value in data set [8] (pH levels below 6.5 or above 7.5) was “declined rapidly”. For the same molecule, the pH optimum in data set [8] (pituitary, partially purified) is given as 7.
